Experimental data reported in paper PMC6473055, “ALCAM Mediates DC Migration Through Afferent Lymphatics and Promotes Allospecific Immune Reactions” (Frontiers in Immunology, 2019).

Target: T1, murine CD166(1-527)-His (mouse, UniProt Q61490 28-527)
T1 construct: signal peptide in the construct; ALCAM (CD166), mouse, residues 1-527 as printed; also called murine ALCAM; source: bought: Sino Biological, purified
T1 sequence (looked up): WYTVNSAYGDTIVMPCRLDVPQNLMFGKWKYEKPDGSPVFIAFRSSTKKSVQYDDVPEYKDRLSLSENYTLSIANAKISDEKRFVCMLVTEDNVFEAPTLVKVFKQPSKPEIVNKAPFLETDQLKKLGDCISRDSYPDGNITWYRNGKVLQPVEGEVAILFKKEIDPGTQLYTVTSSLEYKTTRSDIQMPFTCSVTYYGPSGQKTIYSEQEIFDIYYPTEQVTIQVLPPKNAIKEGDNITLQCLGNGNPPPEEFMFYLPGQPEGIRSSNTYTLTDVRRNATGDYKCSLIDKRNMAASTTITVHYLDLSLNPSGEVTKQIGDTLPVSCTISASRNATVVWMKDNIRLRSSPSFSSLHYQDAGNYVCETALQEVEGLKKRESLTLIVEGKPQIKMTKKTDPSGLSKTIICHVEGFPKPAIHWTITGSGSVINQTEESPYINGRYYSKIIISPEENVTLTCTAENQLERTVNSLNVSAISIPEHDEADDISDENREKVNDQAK
Test: ELISA; competition ELISA: plates coated overnight at 4°C with murine CD166(1-527)-His (5 μg/ml), blocked with PBS with 2% milk powder; 2 h at RT with a fixed amount of murine CD6-Fc (1 μg/ml) and I/F8-Fc or KSF-Fc in PBS (4 to 0.25 μg/ml); bound CD6-Fc detected with HRP-coupled anti-human IgG
Conditions: both partners purified

binding result: binds
B1: murine CD6-Fc (Fc fusion, mouse, UniProt Q61003 17-398, looked up)
chain: GLPSPAPSGQHKNGTIPNMTLDLEERLGIRLVNGSSRCSGSVKVLLESWEPVCAAHWNRAATEAVCKALNCGDSGKVTYLMPPTSELPPGATSGNTSSAGNTTWARAPTERCRGANWQFCKVQDQECSSDRRLVWVTCAENQAVRLVDGSSRCAGRVEMLEHGEWGTVCDDTWDLQDAHVVCKQLKCGWAVKALAGLHFTPGQGPIHRDQVNCSGTEAYLWDCPGRPGDQYCGHKEDAGVVCSEHQSWRLTGGIDSCEGQVEVYFRGVWSTVCDSEWYPSEAKVLCRSLGCGSAVARPRGLPHSLDGRMYYSCKGQEPALSTCSWRFNNSNLCSQSRAARVVCSGSQRHLNLSTSEVPSRVPVTIESSVPVSVKDKDSQGLT
notes: CD6, mouse; source: bought: R&D Systems
